T1: IL-11 (Cat. 12225-HNCE, Sino Biological Inc.) (UniProt P20809 22-199, limits assumed)
T1 sequence (looked up): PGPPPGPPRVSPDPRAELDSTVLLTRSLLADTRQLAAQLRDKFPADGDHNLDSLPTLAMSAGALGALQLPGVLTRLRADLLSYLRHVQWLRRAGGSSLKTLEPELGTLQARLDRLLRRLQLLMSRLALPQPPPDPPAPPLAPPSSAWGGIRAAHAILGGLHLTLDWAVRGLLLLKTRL

T2: human IL-11 (AAH12506.1, Pro22-Leu199) (human, UniProt P20809 22-199)
T2 construct: The range Pro22-Leu199 counts on AAH12506.1; The Octet runs say only 'human IL-11'; also called hIL-11
T2 chain: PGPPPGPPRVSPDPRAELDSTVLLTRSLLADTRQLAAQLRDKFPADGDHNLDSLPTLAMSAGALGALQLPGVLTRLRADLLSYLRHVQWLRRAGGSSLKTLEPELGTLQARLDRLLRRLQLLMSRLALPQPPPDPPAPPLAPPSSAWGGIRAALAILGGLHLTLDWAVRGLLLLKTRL


Columns and labels:
[1] = target: T1, IL-11 (Cat. 12225-HNCE, Sino Biological …); assay: cell-based or functional assay
[2] = target: T1, IL-11 (Cat. 12225-HNCE, Sino Biological …); assay: competition ELISA, IL-11/IL-11Rα/GP130 complex
Summary of the method: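 Plates coated overnight with IL-11Rα-His (Met1-Val363, C-terminal 6-His); antibody samples co-incubated to compete for IL-11/IL-11Rα/GP130 complex formation. Bound complex detected colorimetrically with HRP-conjugated anti-human Fc secondary antibody. Humanized and affinity-matured mutants carried human IgG1 constant regions.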

[3] = target: T2, human IL-11 (AAH12506.1, Pro22-Leu199); assay: BLI (Octet), antibody captured, human IL-11 in solution
Summary of the method: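 Murine antibodies from hybridoma supernatants in HBS-EP+ captured on anti-mouse IgG Fc biosensors; human IL-11 (300 nM) as analyte, 300 s association and 300 s dissociation. Blank-subtracted data fitted to 1:1 Langmuir model for kinetic constants. Humanized and mutant antibodies (human IgG1) captured on anti-human Fc probes, otherwise unchanged.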

Blocking activity (IC50), STAT3-luc reporter [1] | IC50 [2] | Kd [3] | koff [3] | kon [3] | Binder
0.034 µg/mL | 1.71 µg/mL | 2.07 nM | 0.00135 s⁻¹ | 653000 M⁻¹ s⁻¹ | hz8C8-VHm1-m6 + hz8C8-VLm7-m2 (antibody, human IgG1, kappa, V domains shown, human IgG1 constant regions) VH: EVQLVESGGGLVQPGGSLRLSCAASGFTFSSFGMHWVRQAPGKGLEWVAVITPGSNTIYYADTVKGRFTISRDNAKNSLYLQMNSLRAEDTAVYYCAREYYSYDEGFAYWGQGTLVTVSS VL: EIVLTQSPATLSLSPGERATLSCSVSDLIPSQYLHWYQQKPGQAPRLLIYDASNLASGIPARFSGSGSGTDFTLTISSLEPEDFAVYYCQQGVDVPFTFGQGTKLEIKR
0.027 µg/mL | 2.14 µg/mL | 1.87 nM | 0.00111 s⁻¹ | 595000 M⁻¹ s⁻¹ | hz8C8-VHm1-m7 + hz8C8-VLm7-m2 (antibody, human IgG1, kappa, V domains shown, human IgG1 constant regions) VH: EVQLVESGGGLVQPGGSLRLSCAASGFTFSSFGMHWVRQAPGKGLEWVSVITPGSNTIYYADTVKGRFTISRDNAKNSLYLQMNSLRAEDTAVYYCAREYYSYDEGFAYWGQGTLVTVSS VL: EIVLTQSPATLSLSPGERATLSCSVSDLIPSQYLHWYQQKPGQAPRLLIYDASNLASGIPARFSGSGSGTDFTLTISSLEPEDFAVYYCQQGVDVPFTFGQGTKLEIKR
0.01 µg/mL | 1.7 µg/mL | 1.3 nM | 0.001 s⁻¹ | 771000 M⁻¹ s⁻¹ | hz8C8-VHm1-m11 + hz8C8-VLm7-m2 (antibody, human IgG1, kappa, V domains shown, human IgG1 constant regions) VH: EVQLVESGGGLVQPGGSLRLSCAASGFTFSSFGMHWVRQAPGKGLEWVAYITPGSNTIYYADTVKGRFTISRDNAKNSLYLQMNSLRAEDTAVYYCAREYYSYDEGPAYWGQGTLVTVSS VL: EIVLTQSPATLSLSPGERATLSCSVSDLIPSQYLHWYQQKPGQAPRLLIYDASNLASGIPARFSGSGSGTDFTLTISSLEPEDFAVYYCQQGVDVPFTFGQGTKLEIKR
0.008 µg/mL | 1.57 µg/mL | 1.39 nM | 0.000305 s⁻¹ | 219000 M⁻¹ s⁻¹ | hz8C8-VHm1-m10 + hz8C8-VLm7-m2 (antibody, human IgG1, kappa, V domains shown, human IgG1 constant regions) VH: EVQLVESGGGLVQPGGSLRLSCAASGFTFSSFGMHWVRQAPGKGLEWVAYITPGSNTIYYADTVKGRFTISRDNAKNSLYLQMNSLRAEDTAVYYCAREYYSSDEGFAYWGQGTLVTVSS VL: EIVLTQSPATLSLSPGERATLSCSVSDLIPSQYLHWYQQKPGQAPRLLIYDASNLASGIPARFSGSGSGTDFTLTISSLEPEDFAVYYCQQGVDVPFTFGQGTKLEIKR
0.003 µg/mL | 0.57 µg/mL | < 0.001 nM | < 1e-07 s⁻¹ | 847000 M⁻¹ s⁻¹ | hz8C8-VHm1-m8 + hz8C8-VLm7-m2 (antibody, human IgG1, kappa, V domains shown, human IgG1 constant regions) VH: EVQLVESGGGLVQPGGSLRLSCAASGFTFSSFGMHWVRQAPGKGLEWIGYITPGSNTIYYADTVKGRFTISRDNAKNSLYLQMNSLRAEDTAVYYCAREYYSYDEGFAYWGQGTLVTVSS VL: EIVLTQSPATLSLSPGERATLSCSVSDLIPSQYLHWYQQKPGQAPRLLIYDASNLASGIPARFSGSGSGTDFTLTISSLEPEDFAVYYCQQGVDVPFTFGQGTKLEIKR
0.002 µg/mL | 0.77 µg/mL | 0.0239 nM | 2.14e-05 s⁻¹ | 897000 M⁻¹ s⁻¹ | hz8C8-VHm1-m9 + hz8C8-VLm7-m2 (antibody, human IgG1, kappa, V domains shown, human IgG1 constant regions) VH: EVQLVESGGGLVQPGGSLRLSCAASGFTFSSFGMHWVRQAPGKGLEWMGYITPGSNTIYYADTVKGRFTISRDNAKNSLYLQMNSLRAEDTAVYYCAREYYSYDEGFAYWGQGTLVTVSS VL: EIVLTQSPATLSLSPGERATLSCSVSDLIPSQYLHWYQQKPGQAPRLLIYDASNLASGIPARFSGSGSGTDFTLTISSLEPEDFAVYYCQQGVDVPFTFGQGTKLEIKR
0.012 µg/mL | 1.54 µg/mL | 7.95 nM | 0.00139 s⁻¹ | 175000 M⁻¹ s⁻¹ | hz8C8-VHm1-m12 + hz8C8-VLm7-m2 (antibody, human IgG1, kappa, V domains shown, human IgG1 constant regions) VH: EVQLVESGGGLVQPGGSLRLSCAASGFTFSSFGMHWVRQAPGKGLEWVAYITPGSNTIYYADTVKGRFTISRDNAKNSLYLQMNSLRAEDTAVYYCAREYYSYDEGGAYWGQGTLVTVSS VL: EIVLTQSPATLSLSPGERATLSCSVSDLIPSQYLHWYQQKPGQAPRLLIYDASNLASGIPARFSGSGSGTDFTLTISSLEPEDFAVYYCQQGVDVPFTFGQGTKLEIKR
